Earlier results, collected in PMC6340931.
Where two headings read alike, the source gives them in different places. One block for each substance: values may come before it.

Key:
[1] = target: Neurotensin (Homo sapiens) (UniProt P30990)
[2] = target: Sortilin-derived propeptide (SDP) Gln1-Arg44 (Homo sapiens) (UniProt Q99523)
[3] = target: Sortilin-derived propeptide (SDP) Gln1-Arg44 (Homo sapiens) (UniProt Q99523); remark: listed apart in the source

- Kd [1]: 0.3 nM
Substance: Sortilin (from UniProt Q99523)

- Kd [2]: 5 nM
Substance: Sortilin mature (from UniProt Q99523)

- Kd [3]: 5 nM
Substance: TREK-1 (from UniProt O95069)
